“And” between values parts separate entries of the source, which are not always exact repeats. Identical values can stand only once. Bridges are numbered along the chain shown (N, C = ends). Where no end group is shown, it is not given here. [ ]: non-standard residue; d: D form. R8 = C=CCCCCCC[C@@](C)(N)C(=O)O; S5 = C=CCCC[C@](C)(N)C(=O)O
T1: monomeric N protein NK170AR185A-His (N^mono) (human respiratory syncytial virus (HRSV), UniProt P03418 1-391)
T1 construct: also called NK170AR185A-His protein; recombinant N^mono
T1 sequence: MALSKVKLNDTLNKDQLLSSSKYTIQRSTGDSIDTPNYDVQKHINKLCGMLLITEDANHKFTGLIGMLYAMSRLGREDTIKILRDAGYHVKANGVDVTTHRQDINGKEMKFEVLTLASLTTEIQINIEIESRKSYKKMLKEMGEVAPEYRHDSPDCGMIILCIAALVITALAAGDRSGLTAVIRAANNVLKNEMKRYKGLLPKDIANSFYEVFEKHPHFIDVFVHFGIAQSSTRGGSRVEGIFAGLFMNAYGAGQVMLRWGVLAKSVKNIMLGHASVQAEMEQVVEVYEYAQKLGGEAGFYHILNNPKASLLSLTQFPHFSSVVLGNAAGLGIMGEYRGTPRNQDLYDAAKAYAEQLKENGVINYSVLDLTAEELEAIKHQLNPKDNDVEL


Assays:
[1] = target: monomeric N protein NK170AR185A-His (N^mono) (human respiratory syncytial virus (HRSV)) (UniProt P03418); test: SPR (Proteon XPR36): GST-P[1-40] mutant captured on anti-GST antibody, N^mono injected, steady-state fit
[2] = target: monomeric N protein NK170AR185A-His (N^mono) (human respiratory syncytial virus (HRSV)) (UniProt P03418); test: SPR, GST-P[1-40] mutant captured on anti-GST antibody, N^mono injected
[3] = target: RSV nucleoprotein N, wild type (N^0 form in cells) (human respiratory syncytial virus (HRSV)) (UniProt P03418); test: cell-based or functional assay
[4] = target: monomeric N protein NK170AR185A-His (N^mono) (human respiratory syncytial virus (HRSV)) (UniProt P03418); test: SPR (ProteOn XPR36), GST-P[1-40] captured on anti-GST antibody, N^mono injected, steady-state fit; lower end of the range 4-5 µM
[5] = target: monomeric N protein NK170AR185A-His (N^mono) (human respiratory syncytial virus (HRSV)) (UniProt P03418); test: SPR (ProteOn XPR36), GST-P[1-40] captured on anti-GST antibody, N^mono injected, steady-state fit; upper end of the range 4-5 µM
[6] = target: T1, monomeric N protein NK170AR185A-His …; test: fluorescence polarization competition: stapled peptide titrated against FAM-P(1-40) on recombinant N^mono

Molecule | Kd [1] [µM] | Kd [2] | luciferase activity in the HRSV minigenome replication assay [3] [% reduction] | also measured
GST-P[1-40] G10A (from UniProt P12579 1-40) | 5.1 | > 5 µM and < 10 µM |  | 
GST-P[1-40] G26A (from UniProt P12579 1-40) |  | 2.6 µM |  | fold increase of affinity against wild type GST-P[1-40] [2]: 2 fold
GST-P[1-40] E7A (from UniProt P12579 1-40) | 11.1 | > 10 µM and < 20 µM |  | 
GST-P[1-40] P6A (from UniProt P12579 1-40) | 4.89 |  |  | 
RSV phosphoprotein P E7A (full length, plasmid pP) (from UniProt P12579 1-241) |  |  | 50 | 
GST-P[1-40] F4A (from UniProt P12579 1-40) | 13.8 | > 10 µM and < 20 µM |  | 
GST-P[1-40] F8A (from UniProt P12579 1-40) |  | 41 µM |  | 
RSV phosphoprotein P G10A (full length, plasmid pP) (from UniProt P12579 1-241) |  |  | 50 | polymerase activity in the HRSV minigenome replication assay [3]: 80 % reduction
RSV phosphoprotein P F8A (full length, plasmid pP) (from UniProt P12579 1-241) |  |  | 50 | polymerase activity in the HRSV minigenome replication assay [3]: 80 % reduction
RSV phosphoprotein P K25A (full length, plasmid pP) (from UniProt P12579 1-241) |  |  | 50 | 
GST-P[1-40] wild type (from UniProt P12579 1-40) |  |  |  | Kd [4]: > 4 µM; Kd [5]: < 5 µM
GST-P[1-40] K3A (from UniProt P12579 1-40) | 3.49 |  |  | 
GST-P[1-40] S23A (from UniProt P12579 1-40) | 4.5 |  |  | 
RSV phosphoprotein P F20A (full length, plasmid pP) (from UniProt P12579 1-241) |  |  | 50 | polymerase activity in the HRSV minigenome replication assay [3]: 80 % reduction
GST-P[1-40] L21A (from UniProt P08515 1-218; P12579 1-40) | 17.6 |  |  | 
RSV phosphoprotein P I24A (full length, plasmid pP) (from UniProt P12579 1-241) |  |  | 50 | 
GST-P[1-40] E2A (from UniProt P12579 1-40) |  | 1.9 µM |  | fold increase of affinity against wild type GST-P[1-40] [2]: 2 fold
RSV phosphoprotein P L21A (full length, plasmid pP) (from UniProt P12579 1-241) |  |  | 50 | 
GST-P[1-40] H9A (from UniProt P12579 1-40) | 4 |  |  | 
GST-P[1-40] K25A (from UniProt P12579 1-40) | 7.77 | > 5 µM and < 10 µM |  | 
GST-P[1-40] I24A (from UniProt P12579 1-40) | 16.4 | > 10 µM and < 20 µM |  | 
RSV phosphoprotein P F4A (full length, plasmid pP) (from UniProt P12579 1-241) |  |  | 50 | polymerase activity in the HRSV minigenome replication assay [3]: 80 % reduction
GST-P[1-40] E22A (from UniProt P08515 1-218; P12579 1-40) | 7.49 |  |  | 
Ac-EDANNKAT[R8]FLESIK[S5]KFAS (staple 9-16) [HEVS108] |  |  |  | binding result [6]: no binding
